The target of this assay is HLA-A*0201 molecules on the surface of T2 cells (human (endogenous in T2) | human). Put plainly: flow cytometry on cells.

“HTNV nucleoprotein peptide FA9 (aa129–aa137, …)”: the fluorescent index (FI) was 2.77.

The values are drawn from PMC4976285.
